For test [1], the target named is T1, rat amylin receptor (rat calcitonin receptor + rat RAMP 3) (rat, UniProt P32214 25-516; Q9JJ73 23-147).
T1 construct: whole, on cells; Membranes of transiently transfected BHK tk'ts 13 cells (Assay VI); also called rAmylin-R; rat amylin 3(a) receptor
T1 sequence (looked up) 1: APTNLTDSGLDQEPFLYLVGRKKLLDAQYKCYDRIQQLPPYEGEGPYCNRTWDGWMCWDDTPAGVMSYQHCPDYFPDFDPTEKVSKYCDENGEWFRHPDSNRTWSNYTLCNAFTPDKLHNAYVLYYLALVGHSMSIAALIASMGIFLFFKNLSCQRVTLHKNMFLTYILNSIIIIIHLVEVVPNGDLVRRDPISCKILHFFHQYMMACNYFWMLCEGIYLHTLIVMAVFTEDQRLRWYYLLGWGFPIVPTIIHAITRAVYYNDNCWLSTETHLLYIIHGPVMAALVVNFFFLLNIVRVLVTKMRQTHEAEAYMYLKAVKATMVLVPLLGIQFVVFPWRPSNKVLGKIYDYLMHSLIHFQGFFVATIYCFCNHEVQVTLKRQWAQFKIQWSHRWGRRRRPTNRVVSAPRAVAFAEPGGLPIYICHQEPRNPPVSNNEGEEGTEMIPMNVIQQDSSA
T1 sequence (looked up) 2: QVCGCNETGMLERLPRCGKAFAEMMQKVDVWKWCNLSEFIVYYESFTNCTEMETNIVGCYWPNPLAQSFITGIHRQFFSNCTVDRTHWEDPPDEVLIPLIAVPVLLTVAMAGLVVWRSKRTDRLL
In words: SPA competition with 125I-rat amylin, membranes of BHK cells with rat calcitonin receptor + rat RAMP3 (Assay VI).

In test [2] the target is T2, human calcitonin receptor (human, UniProt P30988 25-474).
T2 construct: whole, on cells; Membranes of a stably transfected BHK cell line (Assay VII); also called hCTR; hCT
T2 sequence (looked up): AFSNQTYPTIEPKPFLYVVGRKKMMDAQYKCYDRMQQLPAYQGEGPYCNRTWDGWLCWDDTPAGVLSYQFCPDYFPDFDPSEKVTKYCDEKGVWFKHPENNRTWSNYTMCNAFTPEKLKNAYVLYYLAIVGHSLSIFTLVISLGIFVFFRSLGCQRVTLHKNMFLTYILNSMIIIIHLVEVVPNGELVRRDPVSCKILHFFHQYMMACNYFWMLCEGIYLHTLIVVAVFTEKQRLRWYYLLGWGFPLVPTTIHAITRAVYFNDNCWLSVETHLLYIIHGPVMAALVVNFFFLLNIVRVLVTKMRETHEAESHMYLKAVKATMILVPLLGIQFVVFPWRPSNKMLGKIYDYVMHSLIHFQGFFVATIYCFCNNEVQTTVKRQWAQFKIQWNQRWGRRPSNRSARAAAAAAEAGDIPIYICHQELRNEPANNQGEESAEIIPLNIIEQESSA
In words: ratio IC50 human calcitonin receptor / IC50 human amylin receptor (reference). The gist of the method: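 Competition binding by SPA with cell membranes (35 ng/μL) and SPA beads in 50 mM Hepes pH 7.4 with 1 mM CaCl2, 5 mM MgCl2, 0.1% OA and 0.02% Tween20. Incubated 120 min at 25 °C with shaking, then counted.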

The target in test [3] is T3, rat calcitonin receptor (rat, UniProt P32214 25-516).
T3 construct: whole, on cells; Membranes of transiently transfected BHK tk'ts 13 cells (Assay VIII); also called rCTR
T3 sequence (looked up): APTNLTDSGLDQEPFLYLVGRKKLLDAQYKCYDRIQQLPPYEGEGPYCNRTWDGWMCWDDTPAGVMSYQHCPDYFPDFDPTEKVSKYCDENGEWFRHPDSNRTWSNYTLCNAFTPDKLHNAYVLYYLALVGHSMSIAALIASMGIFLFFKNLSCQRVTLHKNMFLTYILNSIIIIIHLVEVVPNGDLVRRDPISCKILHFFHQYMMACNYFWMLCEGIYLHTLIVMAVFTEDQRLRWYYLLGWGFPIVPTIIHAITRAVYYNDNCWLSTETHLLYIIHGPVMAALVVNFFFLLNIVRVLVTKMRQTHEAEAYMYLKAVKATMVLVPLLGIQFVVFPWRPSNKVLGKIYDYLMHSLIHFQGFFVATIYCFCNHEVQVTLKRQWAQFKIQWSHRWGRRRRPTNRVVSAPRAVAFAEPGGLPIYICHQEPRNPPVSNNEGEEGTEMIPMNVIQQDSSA
The test can be described thus: SPA competition with 125I-calcitonin, membranes of BHK cells with rat calcitonin receptor (Assay VIII).

Test [4] has as its target T3, rat calcitonin receptor. The test can be described thus: ratio IC50 rat calcitonin receptor / IC50 rat amylin receptor (reference).

Numbered stars: 1 amine (or outer) side, 2 acyl side, 3 side chain; on linkers, the order of the positions; unused ones are H or OH. Bridge positions count the residues as written; N and C are the ends. Side chains are listed from the residue outwards. Ends that are not written are not given here. * marks the point of attachment. C20 diacid = O=C(O)CCCCCCCCCCCCCCCCCCC(=O)*; γGlu = O=C(O)[C@H](CCC(=O)[*:2])N[*:1]

B1: N^ε1-[(4S)-4-carboxy-4-(19-carboxynonadecanoylamino)butanoyl]-[Glu14,Arg17,Pro21,Pro27,Arg34,Glu35]-h-amylin (peptide)
peptide: K([γGlu-C20 diacid])CNTATCATQRLAEFLRHSSPNFGAIPSSTNVGRETY-NH2
modifications: disulfide 2-7; N-terminus assumed
SMILES: CC[C@H](C)[C@H](NC(=O)[C@H](C)NC(=O)CNC(=O)[C@H](Cc1ccccc1)NC(=O)[C@H](CC(N)=O)NC(=O)[C@@H]1CCCN1C(=O)[C@H](CO)NC(=O)[C@H](CO)NC(=O)[C@H](Cc1c[nH]cn1)NC(=O)[C@H](CCCNC(=N)N)NC(=O)[C@H](CC(C)C)NC(=O)[C@H](Cc1ccccc1)NC(=O)[C@H](CCC(=O)O)NC(=O)[C@H](C)NC(=O)[C@H](CC(C)C)NC(=O)[C@H](CCCNC(=N)N)NC(=O)[C@H](CCC(N)=O)NC(=O)[C@@H](NC(=O)[C@H](C)NC(=O)[C@@H]1CSSC[C@H](NC(=O)[C@@H](N)CCCCNC(=O)CC[C@H](NC(=O)CCCCCCCCCCCCCCCCCCC(=O)O)C(=O)O)C(=O)N[C@@H](CC(N)=O)C(=O)N[C@@H]([C@@H](C)O)C(=O)N[C@@H](C)C(=O)N[C@@H]([C@@H](C)O)C(=O)N1)[C@@H](C)O)C(=O)N1CCC[C@H]1C(=O)N[C@@H](CO)C(=O)N[C@@H](CO)C(=O)N[C@H](C(=O)N[C@@H](CC(N)=O)C(=O)N[C@H](C(=O)NCC(=O)N[C@@H](CCCNC(=N)N)C(=O)N[C@@H](CCC(=O)O)C(=O)N[C@H](C(=O)N[C@@H](Cc1ccc(O)cc1)C(N)=O)[C@@H](C)O)C(C)C)[C@@H](C)O
A word on the IC50: it is the concentration at which inhibition is half-maximal. On to B1, for which the IC50 stood at 1.06 nM in test [1] and 86.1 nM in test [3]. Further, the “Ratio hCT/hAmylin binding” value in test [2] was 28.5. For the same molecule, in test [4], the “Ratio rCT/rAmylin binding” value was 81.1.

B2: N^ε1-[(4S)-4-carboxy-4-(19-carboxynonadecanoylamino)butanoyl]-[Glu14,Arg17,Pro21,Pro27,Pro34,Glu35]-h-amylin (peptide)
peptide: K([γGlu-C20 diacid])CNTATCATQRLAEFLRHSSPNFGAIPSSTNVGPETY-NH2
modifications: disulfide 2-7; N-terminus assumed
SMILES: CC[C@H](C)[C@H](NC(=O)[C@H](C)NC(=O)CNC(=O)[C@H](Cc1ccccc1)NC(=O)[C@H](CC(N)=O)NC(=O)[C@@H]1CCCN1C(=O)[C@H](CO)NC(=O)[C@H](CO)NC(=O)[C@H](Cc1c[nH]cn1)NC(=O)[C@H](CCCNC(=N)N)NC(=O)[C@H](CC(C)C)NC(=O)[C@H](Cc1ccccc1)NC(=O)[C@H](CCC(=O)O)NC(=O)[C@H](C)NC(=O)[C@H](CC(C)C)NC(=O)[C@H](CCCNC(=N)N)NC(=O)[C@H](CCC(N)=O)NC(=O)[C@@H](NC(=O)[C@H](C)NC(=O)[C@@H]1CSSC[C@H](NC(=O)[C@@H](N)CCCCNC(=O)CC[C@H](NC(=O)CCCCCCCCCCCCCCCCCCC(=O)O)C(=O)O)C(=O)N[C@@H](CC(N)=O)C(=O)N[C@@H]([C@@H](C)O)C(=O)N[C@@H](C)C(=O)N[C@@H]([C@@H](C)O)C(=O)N1)[C@@H](C)O)C(=O)N1CCC[C@H]1C(=O)N[C@@H](CO)C(=O)N[C@@H](CO)C(=O)N[C@H](C(=O)N[C@@H](CC(N)=O)C(=O)N[C@H](C(=O)NCC(=O)N1CCC[C@H]1C(=O)N[C@@H](CCC(=O)O)C(=O)N[C@H](C(=O)N[C@@H](Cc1ccc(O)cc1)C(N)=O)[C@@H](C)O)C(C)C)[C@@H](C)O
As to B2, the IC50 amounted to 0.164 nM in test [1] and 10.4 nM in test [3]. For the same molecule, the “Ratio hCT/hAmylin binding” value in test [2] was found to be 13.3. The “Ratio rCT/rAmylin binding” value in test [4] was found to be 63.2.

B3: N^ε1-[(4S)-4-carboxy-4-(19-carboxynonadecanoylamino)butanoyl]-[Glu14,Arg17,Pro21,Pro27,His34,Glu35]-h-amylin (peptide)
peptide: K([γGlu-C20 diacid])CNTATCATQRLAEFLRHSSPNFGAIPSSTNVGHETY-NH2
modifications: disulfide 2-7; N-terminus assumed
SMILES: CC[C@H](C)[C@H](NC(=O)[C@H](C)NC(=O)CNC(=O)[C@H](Cc1ccccc1)NC(=O)[C@H](CC(N)=O)NC(=O)[C@@H]1CCCN1C(=O)[C@H](CO)NC(=O)[C@H](CO)NC(=O)[C@H](Cc1c[nH]cn1)NC(=O)[C@H](CCCNC(=N)N)NC(=O)[C@H](CC(C)C)NC(=O)[C@H](Cc1ccccc1)NC(=O)[C@H](CCC(=O)O)NC(=O)[C@H](C)NC(=O)[C@H](CC(C)C)NC(=O)[C@H](CCCNC(=N)N)NC(=O)[C@H](CCC(N)=O)NC(=O)[C@@H](NC(=O)[C@H](C)NC(=O)[C@@H]1CSSC[C@H](NC(=O)[C@@H](N)CCCCNC(=O)CC[C@H](NC(=O)CCCCCCCCCCCCCCCCCCC(=O)O)C(=O)O)C(=O)N[C@@H](CC(N)=O)C(=O)N[C@@H]([C@@H](C)O)C(=O)N[C@@H](C)C(=O)N[C@@H]([C@@H](C)O)C(=O)N1)[C@@H](C)O)C(=O)N1CCC[C@H]1C(=O)N[C@@H](CO)C(=O)N[C@@H](CO)C(=O)N[C@H](C(=O)N[C@@H](CC(N)=O)C(=O)N[C@H](C(=O)NCC(=O)N[C@@H](Cc1c[nH]cn1)C(=O)N[C@@H](CCC(=O)O)C(=O)N[C@H](C(=O)N[C@@H](Cc1ccc(O)cc1)C(N)=O)[C@@H](C)O)C(C)C)[C@@H](C)O
notes: also called compound 107
B3: the IC50 in test [1] was 0.958 nM; in test [3], 33.1 nM. For the same molecule, in test [2], the “Ratio hCT/hAmylin binding” value is 11.1. Further, the “Ratio rCT/rAmylin binding” value in test [4] amounted to 34.6.

B4: N^ε1-[(4S)-4-carboxy-4-(19-carboxynonadecanoylamino)butanoyl]-[Glu14,Arg17,Pro21,Pro27,Pro34,Arg35]-h-amylin (peptide)
peptide: K([γGlu-C20 diacid])CNTATCATQRLAEFLRHSSPNFGAIPSSTNVGPRTY-NH2
modifications: disulfide 2-7; N-terminus assumed
SMILES: CC[C@H](C)[C@H](NC(=O)[C@H](C)NC(=O)CNC(=O)[C@H](Cc1ccccc1)NC(=O)[C@H](CC(N)=O)NC(=O)[C@@H]1CCCN1C(=O)[C@H](CO)NC(=O)[C@H](CO)NC(=O)[C@H](Cc1c[nH]cn1)NC(=O)[C@H](CCCNC(=N)N)NC(=O)[C@H](CC(C)C)NC(=O)[C@H](Cc1ccccc1)NC(=O)[C@H](CCC(=O)O)NC(=O)[C@H](C)NC(=O)[C@H](CC(C)C)NC(=O)[C@H](CCCNC(=N)N)NC(=O)[C@H](CCC(N)=O)NC(=O)[C@@H](NC(=O)[C@H](C)NC(=O)[C@@H]1CSSC[C@H](NC(=O)[C@@H](N)CCCCNC(=O)CC[C@H](NC(=O)CCCCCCCCCCCCCCCCCCC(=O)O)C(=O)O)C(=O)N[C@@H](CC(N)=O)C(=O)N[C@@H]([C@@H](C)O)C(=O)N[C@@H](C)C(=O)N[C@@H]([C@@H](C)O)C(=O)N1)[C@@H](C)O)C(=O)N1CCC[C@H]1C(=O)N[C@@H](CO)C(=O)N[C@@H](CO)C(=O)N[C@H](C(=O)N[C@@H](CC(N)=O)C(=O)N[C@H](C(=O)NCC(=O)N1CCC[C@H]1C(=O)N[C@@H](CCCNC(=N)N)C(=O)N[C@H](C(=O)N[C@@H](Cc1ccc(O)cc1)C(N)=O)[C@@H](C)O)C(C)C)[C@@H](C)O
Regarding B4, the IC50 was 0.339 nM in test [1] and 15.4 nM in test [3]. The “Ratio hCT/hAmylin binding” value in test [2] turned out to be 38.6. For the same molecule, the “Ratio rCT/rAmylin binding” value in test [4] came to 45.5.

Regarding K([γGlu-C20 diacid])CNTATCATQRLAEFLRHSSPNFGAIPSSTNVGPHTY-NH2 (disulfide 2-7), the results for the half-inhibitory concentration (IC50) in test [1] and in test [3] were 0.104 nM and 5.43 nM, respectively. Besides, the “Ratio hCT/hAmylin binding” value in test [2] is 21.2. The “Ratio rCT/rAmylin binding” value in test [4] stood at 52.2.

The record behind these values is US20140087995A1 (published 2014).
